From US20080292639A1 (Amgen, published 2008)
One block for each binder: values may come before it.

Legend:
[1] = target: amyloid plaques in unfixed brain sections of a human AD patient (human, UniProt P05067 672-713); assay: cell-based or functional assay
human Aβ40 fibrils [2] = target: T1, human Aβ40 fibrils (human, UniProt P05067 672-711); assay: BIAcore, antibody injected over immobilized Aβ fibrils
T1 construct: domain: Aβ40; Aggregated (fibrillar) form; also called Fibrillar Aβ40; Aβ40 aggregate
T1 sequence (P05067 672-711 limits assumed): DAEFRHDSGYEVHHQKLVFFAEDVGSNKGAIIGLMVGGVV
Protocol: (§1) Preparation of BIacore Chip Surfaces: Immobilization of Proteins to a Biacore sensor chip (CM5) was performed according to manufacturer's instructions. Briefly, carboxyl groups on the sensor chip surfaces were activated by injecting 60 μL of a mixture containing 0.2 M N-ethyl-N′-(dimethylaminopropyl)carbodiimide (EDC) and 0.05 M N-hydroxysuccinimide (NHS). Specific surfaces were obtained by injecting rProtein G (Pierce), goat anti-mouse Fc (Jackson Immuno Research Lab) or Aβ aggregates diluted in 10 mM acetate, pH 4.0 at concentrations between 5 and 20 μg/mL. Excess reactive groups on the surfaces were deactivated by injecting 60 μL of 1 M ethanolamine. Final immobilized levels were about 10000 resonance units (RU) for the Protein G and anti-mouse Fc surfaces, and 400 RU for the Aβ aggregates surfaces. A blank, mock-coupled reference surface was also prepared on the sensor chips for background subtraction.
(§2) Kinetic analysis of antibodies binding to immobilized Aβ aggregates: Antibodies were diluted in PBS+0.005% P-20+0.1 mg/mL BSA from 100 nM to 0.2 nM. The samples at each concentration were injected over the immobilized Aβ aggregate surfaces, as well as over a blank surface for background subtraction. After a 15-minute dissociation, the surface was regenerated by injecting 8 mM glycine, pH 3.0, and 1 M NaCl for 30 seconds.
(§3) The kinetic analysis assay as described above was repeated using various humanized versions of anti-Aβ antibodies (2.1 chimera, 2.1 B, 2.1 C, 2.1 D, 2.1 E, 2.1 F, 2.1 G, 2.1 E.K5, 2.1E.K5R, 2.1 G.K5, 2.1 G.K5R, 2.1 I.K5R and 2.1 L).

human Aβ42 fibrils [3] = target: T2, human Aβ42 fibrils (human, UniProt P05067 672-713); assay: as above
T2 construct: domain: Aβ42; Aggregated (fibrillar) form; also called Fibrillar Aβ42; Aβ42 aggregate
T2 sequence (P05067 672-713 limits assumed): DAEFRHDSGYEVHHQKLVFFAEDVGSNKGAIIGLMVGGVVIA
Protocol: as §1, §2, §3

[4] = target: T3, native amyloid plaques in unfixed brain sections of Tg2576 APP transgenic mice (human, UniProt P05067 672-713, limits assumed); assay: cell-based or functional assay
T3 sequence (P05067 672-713 limits assumed): as above

human Aβ42 monomer [5] = target: T4, human Aβ42 monomer (human, UniProt P05067 672-713); assay: ELISA on plate-coated monomer, time-resolved europium fluorescence
T4 construct: domain: Aβ42; Monomeric form
T4 sequence (P05067 672-713 limits assumed): as above
Protocol: (§4) The same techniques were used for the coating of the microtiter plate for monomer ELISA. The fibrils Aβ monomer were diluted to 2.5 μg/ml in Coating buffer and mixed thoroughly. The solution was aliquoted into the wells of a microtiter plate [Immulon-2; VWR; Cat.#62404-972] at 100 μl per well. The plate was sealed and incubated overnight at 4° C. The plate was washed 5-10× to remove Aβ coating solution prior to starting the assay.
(§5) The wells were blocked with 200 μl of blocking solution and incubated for ≧1 hour at room temperature (RT) with shaking. The blocking solution was flicked out and gently dried on a paper towel. 100 μl of primary antibody diluted in PBS containing 10% blocking solution was added to each well and the plate was incubated at RT for 1 hour with shaking. The plate was washed with 5-10× in TBS, pH 7.5+0.05% Tween 20. 100 μl of secondary antibodies (each diluted 1-2,000-fold in PBS) was added to each well and the plate was incubate at RT for 1 hour with shaking. The plate was washed with 5-10× in TBS, pH 7.5+0.05% Tween 20. 100 μl Streptavidin-Europium reagent (1-1,000-fold dilution) was added and the plated was incubated at RT for 45 minutes with shaking. The plate was washed 5-10× in TBS, pH 7.5+0.05% Tween 20. 120 μl Enhance Solution was added and the plate was incubated at RT for 15-30 minutes with shaking. The plate was read on a Victor TRF plate reader (Europium program).

human Aβ40 monomer [6] = target: T5, human Aβ40 monomer (human, UniProt P05067 672-711); assay: as above
T5 construct: domain: Aβ40; Monomeric form
T5 sequence (P05067 672-711 limits assumed): as the sequence (P05067 672-711 limits assumed) above
Protocol: as §4, §5

human Aβ42 monomer [7] = target: T4, human Aβ42 monomer; assay: BIAcore, antibody captured on protein G or anti-mouse Fc, Aβ monomer injected
Protocol: as §1
(§6) Kinetic analysis of Aβ monomers binding to protein G captured antibodies: The kinetic analysis of the interaction between Aβ monomers and antibodies was performed as follows: 2.1A and mAb 2.1 were diluted in PBS+0.005% P-20+0.1 mg/mL BSA and injected over the immobilized protein G or anti-mouse Fc surfaces. Aβ monomers were diluted in PBS+0.005% P-20+0.1 mg/mL BSA from 1000 nM to 2 nM, and each concentration was injected over the captured antibody surfaces. After 3 minutes dissociation, each surface was regenerated by injection of 10 mM glycine, pH 1.5.

human Aβ40 monomer [8] = target: T5, human Aβ40 monomer; assay: as above
Protocol: as §1, §6

human Aβ40 fibrils [9] = target: T1, human Aβ40 fibrils; assay: BIAcore, antibody injected over immobilized Aβ aggregates
Protocol: as §1, §2

human Aβ42 fibrils [10] = target: T2, human Aβ42 fibrils; assay: as above
Protocol: as §1, §2

human Aβ40 fibrils [11] = target: T1, human Aβ40 fibrils; assay: ELISA on plate-dried fibrils, time-resolved europium fluorescence
Protocol: (§7) The fibrils (Aβ or collagen) were diluted to 10 μg/ml in water and mixed thoroughly. The solution was aliquoted into the wells of a microtiter plate (Immulon-2; VWR; Cat # 62404-972) at 50 μl per well (resulting in 0.5 μg fibrils/well final). The plate was dried overnight by being placed uncovered in a 37° C. incubator.
as §5

human Aβ42 fibrils [12] = target: T2, human Aβ42 fibrils; assay: as above
Protocol: as §7, §5

[13] = target: T3, native amyloid plaques in unfixed brain …; assay: immunohistochemistry on unfixed Tg2576 mouse brain sections
[14] = target: T3, native amyloid plaques in unfixed brain …; assay: cell-based or functional assay; remark: listed apart in the source

Chain of amyloid plaques in unfixed brain sections of a human AD patient (P05067 672-713): as the sequence (P05067 672-713 limits assumed) above

EC50 of phagocytosis by IC-21 cells on human AD brain sections [1]: 0.72 µg/mL | koff (human Aβ40 fibrils [2]): < 5e-05 s⁻¹ | koff (human Aβ42 fibrils [3]): < 5e-05 s⁻¹ | EC50 (µg/ml), ex vivo phagocytosis [4]: 0.83 µg/mL | EC50 (human Aβ42 monomer [5]): 0.031 nM | EC50 (human Aβ40 monomer [6]): 0.029 nM | Kd (human Aβ42 monomer [7]): 50 nM | koff (human Aβ42 monomer [7]): 0.0049 s⁻¹ | kon (human Aβ42 monomer [7]): 98000 M⁻¹ s⁻¹ | Kd (human Aβ40 monomer [8]): 68 nM | koff (human Aβ40 monomer [8]): 0.0094 s⁻¹ | kon (human Aβ40 monomer [8]): 140000 M⁻¹ s⁻¹ | koff (human Aβ40 fibrils [9]): < 5e-05 s⁻¹ | koff (human Aβ42 fibrils [10]): < 5e-05 s⁻¹ | EC50 (human Aβ40 fibrils [11]): 0.065 nM | EC50 (human Aβ42 fibrils [12]): 0.074 nM
B1: 2.1 A (antibody, human IgG1, kappa)
heavy: not shown
light: DVLMTQSPLSLPVTLGQPASISCRSSQSIVHSNGNTYLEWYLQRPGQSPKLLIYKVSNRFSGVPDRFSGSGSGTDFTLKISRVEAEDVGVYYCFQGSHVPLTFGAGTKLEIKRTVAAPSVFIFPPSDEQLKSGTASVVCLLNNFYPREAKVQWKVDNALQSGNSQESVTEQDSKDSTYSLSSTLTLSKADYEKHKVYACEVTHQGLSSPVTKSFNRGEC
notes: Humanized IgG

binding result [13]: no binding (tested: 1 µg/ml)
B2: 2.1 N (antibody, human IgG1, kappa, V domains shown)
VH: QVTLKESGPALVKPTQTLTLTCTFSGFSLRTSGMGVGWIRQPPGKGLEWLAHIWWDDDKSYNPSLKSQLTISKDTSKNQVVLTMTNMDPVDTATYYCARRNYYYDDYFAYWGQGTTLTVSS
VL: DVVMTQSPLSLPVTLGQPASISCRSSQSIVHSNGNTYLEWFQQRPGQSPRRLIYKVSNRFSGVPDRFSGSGSGTDFTLKISRVEAEDVGVYYCFQGSHVPLTFGQGTKLEIKR
notes: Humanized IgG

EC50 of antibody induced phagocytosis of amyloid [14]: 0.4 µg/mL | Kd (human Aβ42 monomer [7]): 17 nM | koff (human Aβ42 monomer [7]): 0.00072 s⁻¹ | kon (human Aβ42 monomer [7]): 42000 M⁻¹ s⁻¹ | Kd (human Aβ40 monomer [8]): 42 nM | koff (human Aβ40 monomer [8]): 0.0041 s⁻¹ | kon (human Aβ40 monomer [8]): 98000 M⁻¹ s⁻¹ | koff (human Aβ40 fibrils [9]): < 5e-05 s⁻¹ | koff (human Aβ42 fibrils [10]): < 5e-05 s⁻¹
B3: murine monoclonal anti-amyloid antibody 2.1 (antibody, mouse IgG1, kappa, V domains shown)
VH: QVTLKESGPGILKPSQTLSLTCSFSGFSLRTSGMGVGWIRQPSGKGLEWLAHIWWDDDKSYNPSLKSQLTISKDTSRNQVFLKITSVDTADTATYYCARRNYYYDDYFAYWGQGTTLTVSS
VL: DVLMTQTPLSLPVSLGDQASISCRSSQSIVHSNGNTYLEWYLQKPGQSPKLLIYKVSNRFSGVPDRFSGSGSGTDFTLKISRVEAEDLGVYYCFQGSHVPLTFGAGTKLELKR
notes: also called mAb 2.1; 2.1 murine
